From US10947289B2, “Glyco-modified atrial natriuretic peptide” (priority 2013, dated 2021)

Assay: Detection of test substance in rat plasma by LC-MS/MS (Test Example 3)
Type: in vivo
Details: rat plasma, 100 nmol/kg i.v., LC-MS/MS; time at which the test substance was finally detected
Protocol: Before the administration and 15, 30, 60, 90, 120, 180, and 240 minutes after the administration, blood was sampled (200 μL/sampling) over time from the jugular vein. The blood samples were immediately left on ice.
The collected blood samples were centrifuged at 5000 rpm at 4° C. for 5 minutes by use of a centrifuge (Sigma 4K15, rotor: Nr12130-H). The separated plasma samples were divided into two types (samples for PK measurement and for cGMP measurement) and stored at −80° C. until measurement.
An internal standard (20 μL (500 nM) of a stable isotope of hANP) and an acetic acid mixed solvent (AcOH/distilled water/DMSO=5/3/2, v/v/v) were added to 50 μL of each rat plasma sample prepared in (1) and then mixed therewith. The mixture was transferred to Amicon Ultra-0.5 50K (Millipore Corp., MA) and centrifuged at 14000 rpm at 15° C. for 30 minutes. The obtained filtrate was transferred to Amicon Ultra-0.5 3K (Millipore Corp., MA) and centrifuged again under the aforementioned conditions. The solution remaining on the filter was recovered and transferred to a 96-well deep well plate. The content of the test substance was measured by LC-MS/MS (LC: Shimadzu LC-10ADVP (Shimadzu Corp.), MS/MS: API 4000 QTrap (AB SCIEX)) to calculate the concentration in plasma. The time at which the test substance was finally detected is shown in the rightmost column of Table 2.

Structure (SMILES) | Maximum time of detection after administration
CC[C@H](C)[C@@H]1NC(=O)[C@H](CCCNC(=N)N)NC(=O)[C@H](CC(=O)O)NC(=O)[C@H](CCSC)NC(=O)[C@H](CCCNC(=N)N)NC(=O)CNC(=O)CNC(=O)[C@H](Cc2ccccc2)NC(=O)[C@@H](NC(=O)[C@H](CO)NC(=O)[C@H](CO)NC(=O)[C@H](CCCNC(=N)N)NC(=O)[C@H](CCCNC(=N)N)NC(=O)[C@H](CC(C)C)NC(=O)[C@H](CO)NC(=O)CO[C@@H]2O[C@H](CO)[C@@H](O[C@@H]3O[C@H](CO)[C@@H](O[C@@H]4O[C@H](CO[C@H]5O[C@H](CO)[C@@H](O)[C@H](O)[C@@H]5O[C@@H]5O[C@H](CO)[C@@H](O[C@@H]6O[C@H](CO)[C@H](O)[C@H](O)[C@H]6O)[C@H](O)[C@H]5NC(C)=O)[C@@H](O)[C@H](O[C@H]5O[C@H](CO)[C@@H](O)[C@H](O)[C@@H]5O[C@@H]5O[C@H](CO)[C@@H](O[C@@H]6O[C@H](CO)[C@H](O)[C@H](O)[C@H]6O)[C@H](O)[C@H]5NC(C)=O)[C@@H]4O)[C@H](O)[C@H]3NC(C)=O)[C@H](O)[C@H]2NC(C)=O)CSSC[C@@H](C(=O)N[C@@H](CC(N)=O)C(=O)N[C@@H](CO)C(=O)N[C@@H](Cc2ccccc2)C(=O)N[C@@H](CCCNC(=N)N)C(=O)N[C@@H](Cc2ccc(O)cc2)C(=O)O)NC(=O)CNC(=O)[C@H](CC(C)C)NC(=O)CNC(=O)[C@H](CO)NC(=O)[C@H](CCC(N)=O)NC(=O)[C@H](C)NC(=O)CNC1=O [Compound 2-10, AG(9)-hANP(1-28)] | 1.5 h
CC[C@H](C)[C@@H]1NC(=O)[C@H](CCCNC(=N)N)NC(=O)[C@H](CC(=O)O)NC(=O)[C@H](CCSC)NC(=O)[C@H](CCCNC(=N)N)NC(=O)CNC(=O)CNC(=O)[C@H](Cc2ccccc2)NC(=O)[C@@H](NC(=O)[C@H](CO)NC(=O)[C@H](CO)NC(=O)[C@H](CCCNC(=N)N)NC(=O)[C@H](CCCNC(=N)N)NC(=O)[C@H](CC(C)C)NC(=O)[C@H](CO)NC(=O)CO[C@@H]2O[C@H](CO)[C@@H](O[C@@H]3O[C@H](CO)[C@@H](O[C@@H]4O[C@H](CO[C@H]5O[C@H](CO)[C@@H](O)[C@H](O)[C@@H]5O[C@@H]5O[C@H](CO)[C@@H](O)[C@H](O)[C@H]5NC(C)=O)[C@@H](O)[C@H](O[C@H]5O[C@H](CO)[C@@H](O)[C@H](O)[C@@H]5O[C@@H]5O[C@H](CO)[C@@H](O)[C@H](O)[C@H]5NC(C)=O)[C@@H]4O)[C@H](O)[C@H]3NC(C)=O)[C@H](O)[C@H]2NC(C)=O)CSSC[C@@H](C(=O)N[C@@H](CC(N)=O)C(=O)N[C@@H](CO)C(=O)N[C@@H](Cc2ccccc2)C(=O)N[C@@H](CCCNC(=N)N)C(=O)N[C@@H](Cc2ccc(O)cc2)C(=O)O)NC(=O)CNC(=O)[C@H](CC(C)C)NC(=O)CNC(=O)[C@H](CO)NC(=O)[C@H](CCC(N)=O)NC(=O)[C@H](C)NC(=O)CNC1=O [Compound 2-11, AG(7)-hANP(1-28)] | 2 h
CC[C@H](C)[C@@H]1NC(=O)[C@H](CCCNC(=N)N)NC(=O)[C@H](CC(=O)O)NC(=O)[C@H](CCSC)NC(=O)[C@H](CCCNC(=N)N)NC(=O)CNC(=O)CNC(=O)[C@H](Cc2ccccc2)NC(=O)[C@@H](NC(=O)[C@H](CO)NC(=O)[C@H](CO)NC(=O)[C@H](CCCNC(=N)N)NC(=O)[C@H](CCCNC(=N)N)NC(=O)[C@H](CC(C)C)NC(=O)[C@H](CO)NC(=O)CCc2cn(CCO[C@@H]3O[C@H](CO)[C@@H](O[C@@H]4O[C@H](CO)[C@@H](O[C@@H]5O[C@H](CO[C@H]6O[C@H](CO)[C@@H](O)[C@H](O)[C@@H]6O[C@@H]6O[C@H](CO)[C@@H](O[C@@H]7O[C@H](CO[C@]8(C(=O)O)C[C@H](O)[C@@H](NC(C)=O)[C@H]([C@H](O)[C@H](O)CO)O8)[C@H](O)[C@H](O)[C@H]7O)[C@H](O)[C@H]6NC(C)=O)[C@@H](O)[C@H](O[C@H]6O[C@H](CO)[C@@H](O)[C@H](O)[C@@H]6O[C@@H]6O[C@H](CO)[C@@H](O[C@@H]7O[C@H](CO[C@]8(C(=O)O)C[C@H](O)[C@@H](NC(C)=O)[C@H]([C@H](O)[C@H](O)CO)O8)[C@H](O)[C@H](O)[C@H]7O)[C@H](O)[C@H]6NC(C)=O)[C@@H]5O)[C@H](O)[C@H]4NC(C)=O)[C@H](O)[C@H]3NC(C)=O)nn2)CSSC[C@@H](C(=O)N[C@@H](CC(N)=O)C(=O)N[C@@H](CO)C(=O)N[C@@H](Cc2ccccc2)C(=O)N[C@@H](CCCNC(=N)N)C(=O)N[C@@H](Cc2ccc(O)cc2)C(=O)O)NC(=O)CNC(=O)[C@H](CC(C)C)NC(=O)CNC(=O)[C@H](CO)NC(=O)[C@H](CCC(N)=O)NC(=O)[C@H](C)NC(=O)CNC1=O [Compound 2-12, SG-triazole-hANP(1-28)] | 1.5 h
CC[C@H](C)[C@@H]1NC(=O)[C@H](CCCNC(=N)N)NC(=O)[C@H](CC(=O)O)NC(=O)[C@H](CCSC)NC(=O)[C@H](CCCNC(=N)N)NC(=O)CNC(=O)CNC(=O)[C@H](Cc2ccccc2)NC(=O)[C@@H](NC(=O)[C@H](CO)NC(=O)[C@H](CO)NC(=O)[C@H](CCCNC(=N)N)NC(=O)[C@H](CCCNC(=N)N)NC(=O)[C@H](CC(C)C)NC(=O)[C@H](CO)NC(=O)CO[C@@H]2O[C@H](CO)[C@@H](O[C@@H]3O[C@H](CO)[C@@H](O[C@@H]4O[C@H](CO[C@H]5O[C@H](CO)[C@@H](O)[C@H](O)[C@@H]5O)[C@@H](O)[C@H](O[C@H]5O[C@H](CO)[C@@H](O)[C@H](O)[C@@H]5O)[C@@H]4O)[C@H](O)[C@H]3NC(C)=O)[C@H](O)[C@H]2NC(C)=O)CSSC[C@@H](C(=O)N[C@@H](CC(N)=O)C(=O)N[C@@H](CO)C(=O)N[C@@H](Cc2ccccc2)C(=O)N[C@@H](CCCNC(=N)N)C(=O)N[C@@H](Cc2ccc(O)cc2)C(=O)O)NC(=O)CNC(=O)[C@H](CC(C)C)NC(=O)CNC(=O)[C@H](CO)NC(=O)[C@H](CCC(N)=O)NC(=O)[C@H](C)NC(=O)CNC1=O [Compound 2-26, AG(5)-hANP(1-28)] | 2 h
CC[C@H](C)[C@@H]1NC(=O)[C@H](CCCNC(=N)N)NC(=O)[C@H](CC(=O)O)NC(=O)[C@H](CCSC)NC(=O)[C@H](CCCNC(=N)N)NC(=O)CNC(=O)CNC(=O)[C@H](Cc2ccccc2)NC(=O)[C@@H](NC(=O)[C@H](CO)NC(=O)[C@H](CO)NC(=O)[C@H](CCCNC(=N)N)NC(=O)[C@H](CCCNC(=N)N)NC(=O)[C@H](CC(C)C)NC(=O)[C@H](CO)NC(=O)CCOCCOCCOCCOCCNC(=O)CO[C@@H]2O[C@H](CO)[C@@H](O[C@@H]3O[C@H](CO)[C@@H](O[C@@H]4O[C@H](CO[C@H]5O[C@H](CO)[C@@H](O)[C@H](O)[C@@H]5O[C@@H]5O[C@H](CO)[C@@H](O[C@@H]6O[C@H](CO[C@]7(C(=O)O)C[C@H](O)[C@@H](NC(C)=O)[C@H]([C@H](O)[C@H](O)CO)O7)[C@H](O)[C@H](O)[C@H]6O)[C@H](O)[C@H]5NC(C)=O)[C@@H](O)[C@H](O[C@H]5O[C@H](CO)[C@@H](O)[C@H](O)[C@@H]5O[C@@H]5O[C@H](CO)[C@@H](O[C@@H]6O[C@H](CO[C@]7(C(=O)O)C[C@H](O)[C@@H](NC(C)=O)[C@H]([C@H](O)[C@H](O)CO)O7)[C@H](O)[C@H](O)[C@H]6O)[C@H](O)[C@H]5NC(C)=O)[C@@H]4O)[C@H](O)[C@H]3NC(C)=O)[C@H](O)[C@H]2NC(C)=O)CSSC[C@@H](C(=O)N[C@@H](CC(N)=O)C(=O)N[C@@H](CO)C(=O)N[C@@H](Cc2ccccc2)C(=O)N[C@@H](CCCNC(=N)N)C(=O)N[C@@H](Cc2ccc(O)cc2)C(=O)O)NC(=O)CNC(=O)[C@H](CC(C)C)NC(=O)CNC(=O)[C@H](CO)NC(=O)[C@H](CCC(N)=O)NC(=O)[C@H](C)NC(=O)CNC1=O [Compound 2-29, SG-PEG(3)-hANP(1-28)] | 2 h
CC[C@H](C)[C@@H]1NC(=O)[C@H](CCCNC(=N)N)NC(=O)[C@H](CC(=O)O)NC(=O)[C@H](CCSC)NC(=O)[C@H](CCCNC(=N)N)NC(=O)CNC(=O)CNC(=O)[C@H](Cc2ccccc2)NC(=O)[C@@H](NC(=O)[C@H](CO)NC(=O)[C@H](CO)NC(=O)[C@H](CCCNC(=N)N)NC(=O)[C@H](CCCNC(=N)N)NC(=O)[C@H](CC(C)C)NC(=O)[C@H](CO)NC(=O)CCOCCOCCOCCOCCOCCOCCOCCOCCOCCOCCOCCOCCNC(=O)CO[C@@H]2O[C@H](CO)[C@@H](O[C@@H]3O[C@H](CO)[C@@H](O[C@@H]4O[C@H](CO[C@H]5O[C@H](CO)[C@@H](O)[C@H](O)[C@@H]5O[C@@H]5O[C@H](CO)[C@@H](O[C@@H]6O[C@H](CO[C@]7(C(=O)O)C[C@H](O)[C@@H](NC(C)=O)[C@H]([C@H](O)[C@H](O)CO)O7)[C@H](O)[C@H](O)[C@H]6O)[C@H](O)[C@H]5NC(C)=O)[C@@H](O)[C@H](O[C@H]5O[C@H](CO)[C@@H](O)[C@H](O)[C@@H]5O[C@@H]5O[C@H](CO)[C@@H](O[C@@H]6O[C@H](CO[C@]7(C(=O)O)C[C@H](O)[C@@H](NC(C)=O)[C@H]([C@H](O)[C@H](O)CO)O7)[C@H](O)[C@H](O)[C@H]6O)[C@H](O)[C@H]5NC(C)=O)[C@@H]4O)[C@H](O)[C@H]3NC(C)=O)[C@H](O)[C@H]2NC(C)=O)CSSC[C@@H](C(=O)N[C@@H](CC(N)=O)C(=O)N[C@@H](CO)C(=O)N[C@@H](Cc2ccccc2)C(=O)N[C@@H](CCCNC(=N)N)C(=O)N[C@@H](Cc2ccc(O)cc2)C(=O)O)NC(=O)CNC(=O)[C@H](CC(C)C)NC(=O)CNC(=O)[C@H](CO)NC(=O)[C@H](CCC(N)=O)NC(=O)[C@H](C)NC(=O)CNC1=O [Compound 2-30, SG-PEG(11)-hANP(1-28)] | 4 h
